# The domain aggregation screens of Martell et al. (2025)
# Assay: soluble fraction after stress (log2 fold change); higher = more stays soluble; pooled small domains, quantitative proteomics
# Conditions: stress: pH 4
# Outline: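 Aggregation propensity is read out as the fold change in how much of each domain remains soluble after acid stress. The custom small-domain libraries were pooled, held at pH 4 and analysed with high-throughput quantitative proteomics. On the log2 scale used, higher values mean more of the domain stayed soluble.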
row,Sequence,soluble fraction (log2)
1,HMESGSSKINQDILETFTRGKKSLSISDISRLSGHHRHTVARYLDNLVSSGKLEMRQHGQKKKYYLSDIQP,0.0709
2,HMESILDDFPGLGAVRRAALLEHFGDIDRLRAASAVEITEVDGFGDVLARELHDFLHRPKPDA,-0.768
3,HMESKKKTYTVKSGDTLVSILKREGVPQELIFKDYLGLFLELNPQISDINKLRVGQEIVLPVPG,0.3
4,HMESLGEKIKNIRISNNLKQSELADILHISEKTISSWENNRTTPDLNMIYKISNYFKKSFYYLISDDYI,-0.283
5,HMESMIGSLRGRLLELFGDGEVLIEVGGVGYRVIVTPTTTVRLGDVGGDVFVHVHHHIREADQTLYGF,-0.722
6,HMESPSGGHRIALAFDQGTARAVDATYARLTGAGYEGRTKPWDAPWGQRYATVFDPDGNSVDLFAALE,-0.544
7,HMESRDRVRQASAAGYRFMSTMAGHEPGFEEASRALFAGDQTAFEARITAWPVDVQTHLKKILAEAFTT,-0.939
8,HMESRLQAAIALRKAGEHEQSREALKILADEPALRAQALLNIAWSFDNQGHERDAEGYYLAAIE,0.127
9,HMESSKLQASIINYLERRPTQKFTAEELFKGLSLEKASVFNELVKELTSLERSHKVEITADDKFKIARPQ,0.0446
10,HMESSSQLGFELARLVESGNDEEARALVQAKELSEADERKWLYHLGNLLHAAGRPLQASAIWREVGT,-0.436
11,HMESVQWSVFPSAKYVTIISFDPTTSGGSATAKFKVSDEARSKGFRFRIEAAIGEGIMRSEMYVIEE,-0.0704
12,HMESWNRARILEKIRELHAQGVALNNASMRRLGYRGMMEAAARPQNFGSWEAAVRAAGIDYDRV,0.22
13,HMETAVMPDVMKLDSTTAIQALKDKGFATIETYEVKSDRPAGVVVRQSETADSVVALSKEILLGVSNGADY,-0.00473
14,HMETGFADTLRKFRKEADMTQEKLAEALGVTTGAVYKWENGRSTPEVRLLVEMADLFGTSVDALLDYKVR,-0.723
15,HMETGKLIKELRLKKGMTQEELADKTEVSSRTIQRIENGEVDPRAYTLQMIARALEVDYSLFME,-0.683
16,HMETIELSAPGGVRLDKLIADGTELSRSAAVKLIEQGNVLVNGSPAGKKDIPAAGAAVEITLPEPQ,-0.255
17,HMETIGENIKTYRQKKGYTQEEVANRLHVTRQTISKWEKNYSIPDAEVLVKLADVLEVQTSQLLGV,≥ 0.43

row,Sequence,soluble fraction (log2)
1,HMETIGKRVRAARQELGLTMKQLHEQTGLSTGNISDIENDRNTPSVSSLVALGRALRRSLDWLLTGEE,-0.555
2,HMETISEIWRLIDGLDEIYRVPLTMYYRSNRSVREIAETLGLSARTVETRIYRARRMIREKWSN,-0.679
3,HMETITDRLNRRSLELNVSQADIIRTTGAGRGTVSGWFSGANAPSAKYLESLAVALKTSTTWLLSGKD,0.0972
4,HMETKERDEQFLEMIRQNEGIIFKVASFYVDKEHPIGDLYQEVVLNLWKGYPSFRGESKYSTWIYRIALNT,-0.504
5,HMETKPTELMLEVHELRIGMFVHLDLGWMDHPFPLNRFKISTNSQIEQIKGLRLKQVKVMTALSDPTALS,-1.25
6,HMETKQYIVEAQDEGTRLDVYLTKELGQSRSYVQSLVKEGHVQVNGKTGKSNLKLSSSSEILVTIPEVQ,0.0538
7,HMETLKINTHLGTLNLKKRGKKGTWQINIYFKNIEGDNHYRQSTGTNQLELAKAKAMNMITTEYSNRLAGI,-0.259
8,HMETMSYAEFNAIRIGKAKLMLADPSLKIWEISEAVGYTDTAHFARTFKKLEGMSANEYRNSL,-0.713
9,HMETNFTGTRIATARKAKNMSQAQLAQQLFISPQAVGKWERGESIPDIVTVVKLADVLGVDLNYFSE,-0.403
10,HMETPQIVARGDLITMVFRSGSLVLTAKGKALENGAMGDTIRVVNSDSNKTLAARVSASREVTVSE,-0.146
11,HMETPSNTAGITHATSDGYIFKGESDIIGRNSFGFIVKHGSHNHIIPFDSLRGTKWEYLINKYT,-0.03
12,HMETSVDEVYKKIQAYIEAEDKHKPLSDQKLAEQLQSDGLKVSRRTVAKYREKLNIASSSKRKR,0.379
13,HMETTVPNVLNHNISTGEILLKENNLNFRIQYIPSNKDEAVGTIINSVPTSGEKVKFGTVVDLKVL,-0.0719
14,HMETVRHFRLDWSQAADRLDKVLASLMNDVSRARIQEWIRLGAVSVNGEILTDVRAKVAGGDAIDVTPQTA,-0.0931
15,HMETVRLSVDAQGAYYWNEQRVDDSALPDLLREASGRKPQPDLHIRGDKAVRYERVAEAMAAAQRAGLKKI,-0.178
16,HMETVVTEVKTTDVVNIRTSDSETADKLSKAAIGDTFPLLEERGNGWSKVAYNGEEAFIKSDYLEPSKTE,-0.654
17,HMETYEFNITDKEQTGMRVDKLLPELNSDWSRNQIQDWIKAGLVVANDKVVKSNYKVKLNDHIVVTEKEV,-0.2
